Assay results: PMC6191146, “Positive and negative regulation of transferred nif genes mediated by indigenous GlnR in Gram-positive Paenibacillus polymyxa”
Each block holds one molecule with its values, some of them ahead of it.

How the values were obtained:
[1] = molecular target: His6-tagged GlnR of Paenibacillus polymyxa WLY78 (Paenibacillus polymyxa WLY78); experiment: SEC; Superdex 200 10/300, 50 mM Tris-HCl pH 7.4, 300 mM NaCl; His6-GlnR at 2 mg/ml; dimer to monomers, broad peak with two maxima
[2] = molecular target: T1, GlnR (Paenibacillus polymyxa WLY78, UniProt A0A074LG55 1-137); experiment: SPR; GlnR alone; fast dissociation; EMSA: 20 mM HEPES pH 7.6, 1 mM EDTA, 10 mM (NH4)2SO4, 1 mM DTT, 0.2% Tween 20, 30 mM KCl, 1 ug poly[d(A-T)], 0.3 nM probe, 25 C; SPR: 10 mM HEPES pH 7.4, 300 mM NaCl, 3 mM MgCl2, 0.2 mM EDTA, 0.005% Tween-20, 25 C; conditions: protein: recombinant; tags: N-terminal His6 (pET-28b); chain copies: 2; label: 5' biotin on capture linker S7; 39 bp duplex; 3' overhang 20 nt of BS1R paired to the capture linker
T1 sequence: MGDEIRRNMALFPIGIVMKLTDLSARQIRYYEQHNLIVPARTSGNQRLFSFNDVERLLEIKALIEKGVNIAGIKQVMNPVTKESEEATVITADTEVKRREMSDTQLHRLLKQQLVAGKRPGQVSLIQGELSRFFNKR

[3] = molecular target: T1, GlnR; experiment: SPR; GlnR alone; EMSA: 20 mM HEPES pH 7.6, 1 mM EDTA, 10 mM (NH4)2SO4, 1 mM DTT, 0.2% Tween 20, 30 mM KCl, 1 ug poly[d(A-T)], 0.3 nM probe, 25 C; SPR: 10 mM HEPES pH 7.4, 300 mM NaCl, 3 mM MgCl2, 0.2 mM EDTA, 0.005% Tween-20, 25 C; conditions: protein: recombinant, tags: N-terminal His6 (pET-28b), chain copies: 2, label: 5' biotin on capture linker S7, 39 bp duplex
[4] = molecular target: T1, GlnR; experiment: SPR; GlnR alone; slow dissociation; EMSA: 20 mM HEPES pH 7.6, 1 mM EDTA, 10 mM (NH4)2SO4, 1 mM DTT, 0.2% Tween 20, 30 mM KCl, 1 ug poly[d(A-T)], 0.3 nM probe, 25 C; SPR: 10 mM HEPES pH 7.4, 300 mM NaCl, 3 mM MgCl2, 0.2 mM EDTA, 0.005% Tween-20, 25 C; conditions: protein: recombinant; tags: N-terminal His6 (pET-28b); chain copies: 2; label: 5' biotin on capture linker S7; 39 bp duplex; 3' overhang 20 nt of BS2R paired to the capture linker
[5] = molecular target: T1, GlnR; experiment: EMSA; GlnR alone; EMSA: 20 mM HEPES pH 7.6, 1 mM EDTA, 10 mM (NH4)2SO4, 1 mM DTT, 0.2% Tween 20, 30 mM KCl, 1 ug poly[d(A-T)], 0.3 nM probe, 25 C; SPR: 10 mM HEPES pH 7.4, 300 mM NaCl, 3 mM MgCl2, 0.2 mM EDTA, 0.005% Tween-20, 25 C; conditions: protein: recombinant; tags: N-terminal His6 (pET-28b); chain copies: 2; label: DIG 3' end; blunt

stoichiometry N [1]: 2
Molecule: His6-tagged GlnR of Paenibacillus polymyxa WLY78 (natural protein)

B1: SPR oligo site I (BS1F/BS1R on capture linker) (dsDNA)
DNA 1: GTAAAGTGTACGATATATTACTTGACGTAAAATTTGACA
DNA 2: TGTCAAATTTTACGTCAAGTAATATATCGTACACTTTACCCTACCCTACGTCCTCCTGC
DNA 3: GCAGGAGGACGTAGGGTAGG
Kd [2]: 9.16e-07 M (unit not printed in text) | Ka ([3]; 3' overhang 20 nt of BS1R paired to the capture linker): 1.09e+06 M-1 (unit not printed in text)

B2: SPR oligo site II (BS2F/BS2R on capture linker) (dsDNA)
DNA 1: AACAGAGATTTATGTAAGGGAATATAACGTAGAGAGGAG
DNA 2: CTCCTCTCTACGTTATATTCCCTTACATAAATCTCTGTTCCTACCCTACGTCCTCCTGC
DNA 3: GCAGGAGGACGTAGGGTAGG
Kd [4]: 5.37e-08 M (unit not printed in text) | Ka ([3]; 3' overhang 20 nt of BS2R paired to the capture linker): 1.86e+07 M-1 (unit not printed in text)

B3: EMSA probe mutated site I (TGACGT to GGTACC) (dsDNA)
DNA 1: ACCGCGCACATGTAAAGTGTACGATATATTACTGGTACCAAAATTTGACACATATGTGA
DNA 2: TCACATATGTGTCAAATTTTGGTACCAGTAATATATCGTACACTTTACATGTGCGCGGT
binding result [5]: no binding

B4: EMSA probe mutated site II (ATAACG to ATCGAT) (dsDNA)
DNA 1: AGACAAAAACAGAGATTTATGTAAGGGAATAATCGATAGAGAGGAGGGAATGA
DNA 2: TCATTCCCTCCTCTCTATCGATTATTCCCTTACATAAATCTCTGTTTTTGTCT
binding result [5]: no binding
